Assay results as given in publication PMC7228087, “Atco, a yeast mitochondrial complex of Atp9 and Cox6, is an assembly intermediate of the ATP synthase” (PLoS ONE, 2020).

Target: T1, Cox6 with a tandem hemagglutinin plus protein C tag (S. cerevisiae, UniProt P00427 41-148)
T1 construct: Cox6, nuclear-encoded imported structural subunit of cytochrome oxidase, S. cerevisiae; also called Cox6-HAC; COX6-HAC; source: expressed in S. cerevisiae (cox6::URA3 trp1::pG71/ST9), in digitonin extract of mitochondria
T1 sequence (looked up): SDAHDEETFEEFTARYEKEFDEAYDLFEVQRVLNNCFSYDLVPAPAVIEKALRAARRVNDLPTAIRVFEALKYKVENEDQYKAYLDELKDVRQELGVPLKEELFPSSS
Assay: co-IP; as a1 but from an oxa1 null mutant expressing Cox6-HAC; radiolabel quantified as ratio to the OXA1 strain
Settings: partners not purified

B1: Atp9 (natural protein, UniProt P61829 1-76, looked up)
chain: MQLVLAAKYIGAGISTIGLLGAGIGIAIVFAALINGVSRNPSIKDTVFPMAILGFALSEATGLFCLMVSFLLLFGV
notes: Atp9, mitochondrially encoded subunit of the ATP synthase ring, S. cerevisiae; wild type with native cysteine at residue 65; The introduction says that the ring of the ATP synthase has 10 copies of Atp9; In Atco the protein is oligomeric but not a ring; also called A9; Atp9 ring; source: submitochondrial particles for Western blots
ratio (Δoxa1/OXA1) of radiolabel in the PC eluate, SDS-PAGE: 0.124 ratio
